Measurements: IntAct's records for PubMed 19162005

B1: Regulator of cell cycle RGCC (Homo sapiens), Q9H4X1-2 (parent)
chain: MKPPAEDLSDALCEFDAVLADFASPFHERHFHYEEHLERMKRRSSASVSDSSGFSDSESADSLYRNSFSFSDEKLNSPTDSTPALLSATVTPQKAKLGDTKELEAFIADLDKTLASM

Variants of: B1
Conditions: with akt1_human AKT1, P31749
Sequence of akt1_human AKT1, P31749 (P31749 whole entry): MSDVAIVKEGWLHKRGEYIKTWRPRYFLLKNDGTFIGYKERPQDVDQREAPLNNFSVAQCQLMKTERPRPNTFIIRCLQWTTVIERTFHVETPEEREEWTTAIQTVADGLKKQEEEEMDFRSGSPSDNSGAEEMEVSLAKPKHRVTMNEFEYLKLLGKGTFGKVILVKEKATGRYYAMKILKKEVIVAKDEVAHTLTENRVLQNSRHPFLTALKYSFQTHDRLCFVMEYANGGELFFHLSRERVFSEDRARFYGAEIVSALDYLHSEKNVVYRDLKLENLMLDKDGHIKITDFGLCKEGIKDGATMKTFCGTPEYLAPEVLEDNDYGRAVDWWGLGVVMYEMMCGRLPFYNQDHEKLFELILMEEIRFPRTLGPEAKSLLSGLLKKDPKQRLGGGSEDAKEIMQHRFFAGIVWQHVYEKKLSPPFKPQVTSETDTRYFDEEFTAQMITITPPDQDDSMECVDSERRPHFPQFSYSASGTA

| Variant | effect of a mutation on the interaction |
| --- | --- |
| S45A;S47A | disrupting interaction |
